# B1: Protein wntless homolog (Homo sapiens), Q5T9L3 (parent)
# chain: MAGAIIENMSTKKLCIVGGILLVFQIIAFLVGGLIAPGPTTAVSYMSVKCVDARKNHHKTKWFVPWGPNHCDKIRDIEEAIPREIEANDIVFSVHIPLPHMEMSPWFQFMLFILQLDIAFKLNNQIRENAEVSMDVSLAYRDDAFAEWTEMAHERVPRKLKCTFTSPKTPEHEGRYYECDVLPFMEIGSVAHKFYLLNIRLPVNEKKKINVGIGEIKDIRLVGIHQNGGFTKVWFAMKTFLTPSIFIIMVWYWRRITMMSRPPVLLEKVIFALGISMTFINIPVEWFSIGFDWTWMLLFGDIRQGIFYAMLLSFWIIFCGEHMMDQHERNHIAGYWKQVGPIAVGSFCLFIFDMCERGVQLTNPFYSIWTTDIGTELAMAFIIVAGICLCLYFLFLCFMVFQVFRNISGKQSSLPAMSKVRRLHYEGLIFRFKFLMLITLACAAMTVIFFIVSQVTEGHWKWGGVTVQVNSAFFTGIYGMWNLYVFALMFLYAPSHKNYGEDQSNGDLGVHSGEELQLTTTITHVDGPTEIYKLTRKEAQE
# Variants of: B1
# Conditions: with wnt3a_human WNT3A
row,Variant,effect of a mutation on the interaction
1,E538A,with no effect
2,K537A,disrupting interaction strength
3,R536A,with no effect

# The remaining lines, values ahead:
row,effect of a mutation on the interaction,Variant
1,with no effect,E541A
2,with no effect,Q540A

# Variants of: B1
# Conditions: with wnt3a_human WNT3A
# Remark: another data set of the same source
row,effect of a mutation on the interaction,Variant
1,with no effect,Y425A
